Values quoted from earlier work as cited in PMC8808565 (iScience, 2022).

System: ACE2

B1: human defensin 5 (protein, UniProt Q01523 20-94, looked up)
Defensin alpha 5: ESLQERADEATTQKQSGEDNQDLAISFAGNGLSALRTSGSQARATCYCRTGRCATRESLSGVCEISGRLYRLCCR
modifications: Defensin-5
- target (in words): target ACE2
